Variants at the floor of the assay were thinned out.
What was measured:
biotinyl-Phe-oxazolone = experiment: self-aminoacylation, catalytic enhancement (BFO) (fold over background); higher = more active; k-Seq, kA / k0A0; sequences stand for … in GGGAAUGGAUCCACAUCUACGAAUUC…UUCACUGCAGACUUGACGAAGCUG
Summary of the method: (§1)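 The uncatalyzed rate is the low-activity peak of a bimodal Gaussian fit, and catalytic enhancement is median kA divided by it. The kA values came from pseudo-first-order fits, with 1000 bootstraps, of per-sequence fraction reacted measured by streptavidin capture, triplicate qPCR and Illumina sequencing. Mutagenized RNA pools with a 21-nt variable region (0.43 μM) were reacted with each biotinyl-aminoacyl-oxazolone at 2–1250 μM in 50 μL HEPES/NaCl/KCl/MgCl2/CaCl2 buffer with 5% acetonitrile, pH 6.9–7.0, for 90 minutes at room temperature.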

biotinyl-Ile-oxazolone = experiment: self-aminoacylation, catalytic enhancement (BIO) (fold over background); higher = more active; k-Seq, kA / k0A0; sequences stand for … in GGGAAUGGAUCCACAUCUACGAAUUC…UUCACUGCAGACUUGACGAAGCUG
Summary of the method: as §1

biotinyl-Met-oxazolone = experiment: self-aminoacylation, catalytic enhancement (BMO) (fold over background); higher = more active; k-Seq, kA / k0A0; sequences stand for … in GGGAAUGGAUCCACAUCUACGAAUUC…UUCACUGCAGACUUGACGAAGCUG
Summary of the method: as §1

biotinyl-Val-oxazolone = experiment: self-aminoacylation, catalytic enhancement (BVO) (fold over background); higher = more active; k-Seq, kA / k0A0; sequences stand for … in GGGAAUGGAUCCACAUCUACGAAUUC…UUCACUGCAGACUUGACGAAGCUG
Summary of the method: as §1

biotinyl-Leu-oxazolone = experiment: self-aminoacylation, catalytic enhancement (BLO) (fold over background); higher = more active; k-Seq, kA / k0A0; sequences stand for … in GGGAAUGGAUCCACAUCUACGAAUUC…UUCACUGCAGACUUGACGAAGCUG
Summary of the method: as §1

biotinyl-Trp-oxazolone = experiment: self-aminoacylation, catalytic enhancement (BWO) (fold over background); higher = more active; k-Seq, kA / k0A0; sequences stand for … in GGGAAUGGAUCCACAUCUACGAAUUC…UUCACUGCAGACUUGACGAAGCUG
Summary of the method: as §1

Sequence	self-aminoacylation (biotinyl-Phe-oxazolone)	self-aminoacylation (biotinyl-Ile-oxazolone)	self-aminoacylation (biotinyl-Met-oxazolone)	self-aminoacylation (biotinyl-Val-oxazolone)	self-aminoacylation (biotinyl-Leu-oxazolone)	self-aminoacylation (biotinyl-Trp-oxazolone)
AUUCACCUAGGUCAUCCGAUG [Fam2.2 aminoacylation ribozyme variant]	2.62	1.43	1.54	1.95	1.24	1.09
AUUCACCUAGGUCAUCCGCUG [Fam2.2 aminoacylation ribozyme variant]	9.5	2.23	1.73	1.89	2.54	1.25
AUUCACCUAGGUCAUCGAGUG [Fam2.2 aminoacylation ribozyme variant]	35.7	10.8	14.3	8.76	19.3	8.05
AUUCACCUAGGUCAUCGAUUG [Fam2.2 aminoacylation ribozyme variant]	0.422	0.512	0.539	0.586	0.502	0.489
AUUCACCUAGGUCAUCGCGCG [Fam2.2 aminoacylation ribozyme variant]	22.4	5.42	5.13	5.13	7.72	3.32
AUUCACCUAGGUCAUCGCGUA [Fam2.2 aminoacylation ribozyme variant]	19.4	3.2	3.71	2.89	4.3	6.08
AUUCACCUAGGUCAUCGGAAG [Fam2.2 aminoacylation ribozyme variant]	0.472	0.622	0.562	0.782	0.541	0.705
AUUCACCUAGGUCAUCGGAUG [Fam2.2 aminoacylation ribozyme variant]	0.601	0.814	0.773	0.928	0.748	0.594
AUUCACCUAGGUCAUCGGCGG [Fam2.2 aminoacylation ribozyme variant]	17.9	3.21	4.11	3.27	5.14	2.74
AUUCACCUAGGUCAUCGGCUG [Fam2.2 aminoacylation ribozyme variant]	4.96	1.74	1.73	1.91	1.91	1.49
AUUCACCUAGGUCAUCGGGAG [Fam2.2 aminoacylation ribozyme variant]	1.65	1.43	1.58	1.44	1.86	1.39
AUUCACCUAGGUCAUCGGGGA [Fam2.2 aminoacylation ribozyme variant]	123	11.4	19.8	9.77	26	15.5
AUUCACCUAGGUCAUCGGGUA [Fam2.2 aminoacylation ribozyme variant]	605	37.2	71.8	32	101	49.5
AUUCACCUAGGUCAUCGGGUG [Fam2.2 aminoacylation ribozyme variant]	486	33.2	60.1	28.4	83.7	45.6
AUUCACCUAGGUCAUCGGGUU [Fam2.2 aminoacylation ribozyme variant]	118	10.8	18.4	9.43	26.4	13.8
AUUCACCUAGGUCAUCGGUUC [Fam2.2 aminoacylation ribozyme variant]	4.35	1.33	1.43	1.43	1.19	1.07
AUUCACCUAGGUCAUCUGGUC [Fam2.2 aminoacylation ribozyme variant]	0.411	0.522	0.623	0.686	0.596	0.378
AUUCACCUAGGUCAUGCGGUG [Fam2.2 aminoacylation ribozyme variant]	33.8	4.12	4.77	4.13	6.55	5.3
AUUCACCUAGGUCAUGGGGGG [Fam2.2 aminoacylation ribozyme variant]	1.11	2.55	2.72	2	3.18	2.23
AUUCACCUAGGUCAUUCGGUG [Fam2.2 aminoacylation ribozyme variant]	33.6	3.94	4.55	3.79	6.91	5.13
AUUCACCUAGGUCAUUGGGGG [Fam2.2 aminoacylation ribozyme variant]	1.27	2.45	2.67	2.06	2.77	3.03
AUUCACCUAGGUCCGCGGGUG [Fam2.2 aminoacylation ribozyme variant]	50.3	5.39	9.13	4.58	8.76	7.69
AUUCACCUAGGUCCUCGCGUG [Fam2.2 aminoacylation ribozyme variant]	51.4	4.84	7.68	4.96	10.4	6.43
AUUCACCUAGGUCCUCGGCUG [Fam2.2 aminoacylation ribozyme variant]	8.15	2.51	2.07	2.25	2.6	2.67
AUUCACCUAGGUCGACGGGUG [Fam2.2 aminoacylation ribozyme variant]	13.3	1.88	2.93	1.87	3.27	2.19
AUUCACCUAGGUCGGCGGGUG [Fam2.2 aminoacylation ribozyme variant]	41.6	4.39	6.63	5.49	8.86	6.02

Sequence	self-aminoacylation (biotinyl-Phe-oxazolone)	self-aminoacylation (biotinyl-Ile-oxazolone)	self-aminoacylation (biotinyl-Met-oxazolone)	self-aminoacylation (biotinyl-Val-oxazolone)	self-aminoacylation (biotinyl-Leu-oxazolone)	self-aminoacylation (biotinyl-Trp-oxazolone)
AUUCACCUAGGUCGUCGGAUG [Fam2.2 aminoacylation ribozyme variant]	0.37	0.909	0.982	1.12	0.929	0.507
AUUCACCUAGGUCUCCGGGUG [Fam2.2 aminoacylation ribozyme variant]	47.5	4.71	7.84	4.49	9.35	8.48
AUUCACCUAGGUCUUCGGGUG [Fam2.2 aminoacylation ribozyme variant]	27.4	3.33	4.46	3.71	5.48	4.38
AUUCACCUAGGUCUUCGGUUG [Fam2.2 aminoacylation ribozyme variant]	9.48	1.55	1.76	1.41	1.75	1.72
AUUCACCUAGGUCUUCUGGUG [Fam2.2 aminoacylation ribozyme variant]	58.1	3.9	6.75	3.86	9.28	5.92
AUUCACCUAGGUGAUCCGGUG [Fam2.2 aminoacylation ribozyme variant]	22.1	3.26	5.12	3.03	4.06	3.31
AUUCACCUAGGUGAUCUGGUG [Fam2.2 aminoacylation ribozyme variant]	7.54	1.34	1.99	1.47	2.36	1.84
AUUCACCUAGGUUAUAGGGUG [Fam2.2 aminoacylation ribozyme variant]	14.1	2.23	3.65	2.11	4	3.5
AUUCACCUAGGUUAUCCGGUG [Fam2.2 aminoacylation ribozyme variant]	42.3	3.8	7.05	3.77	8.66	5.66
AUUCACCUAGGUUAUCGAGUG [Fam2.2 aminoacylation ribozyme variant]	2.32	1.4	1.97	1.42	2.35	1.89
AUUCACCUAGGUUAUUGGGUG [Fam2.2 aminoacylation ribozyme variant]	45	3.48	5.84	3.15	7.19	6.1
AUUCACCUAGGUUCUCGGGUG [Fam2.2 aminoacylation ribozyme variant]	20.4	2.63	2.88	2.68	3.18	2.44
AUUCACCUAGUUCAGCGGGUG [Fam2.2 aminoacylation ribozyme variant]	15.9	2.07	2.76	2.28	3.34	2.62
AUUCACCUAGUUCAUCGGCUG [Fam2.2 aminoacylation ribozyme variant]	4.73	1.36	1.27	1.55	1.57	1.03
AUUCACCUAGUUCAUGGGGUG [Fam2.2 aminoacylation ribozyme variant]	66	4.31	8.55	4.43	10.6	7.05
AUUCACCUAUGACAUCGGGUG [Fam2.2 aminoacylation ribozyme variant]	22.3	2.25	3.24	1.73	3.63	3.44
AUUCACCUAUGUCAUCCGGUG [Fam2.2 aminoacylation ribozyme variant]	37.6	3.78	5.26	3.51	7.19	5.69
AUUCACCUAUGUCAUCGCGUG [Fam2.2 aminoacylation ribozyme variant]	65.3	4.86	8.26	4.89	10.4	7.34
AUUCACCUAUGUCAUCGGAUG [Fam2.2 aminoacylation ribozyme variant]	0.61	0.826	0.581	0.758	0.606	0.502
AUUCACCUAUGUCAUCGGGCG [Fam2.2 aminoacylation ribozyme variant]	10.4	2.22	2.79	2.13	2.87	2.2
AUUCACCUAUGUCAUCGGGUG [Fam2.2 aminoacylation ribozyme variant]	36.7	3.61	5.41	3.48	7.41	5.45
AUUCACCUCGGGCAUCGGGUG [Fam2.2 aminoacylation ribozyme variant]	34.5	3.71	5.94	5.1	6.03	5.56
AUUCACCUCGGUCAUCGGAUG [Fam2.2 aminoacylation ribozyme variant]	0.352	0.927	0.789	1	0.794	0.751
AUUCACCUCGGUCAUCGGGAG [Fam2.2 aminoacylation ribozyme variant]	0.478	1.02	1.39	1.22	1.63	1.17
AUUCACCUCGGUCAUCGGGUU [Fam2.2 aminoacylation ribozyme variant]	13.3	2.15	2.44	2.41	2.47	2.53
